Kd data for six molecules are collected here from article PMC2921341, “Interaction of Serum- and Glucocorticoid Regulated Kinase 1 (SGK1) with the WW-Domains of Nedd4-2 Is Required for Epithelial Sodium Channel Regulation” (PLoS ONE, 2010).

For this assay, the target named is T1, SGK PY-motif peptide (human).
T1 construct: N-terminal cysteine of the printed peptide; stretch of human SGK (SGK1) with the PY motif PPFY (Y298); also called SGK peptide; source: synthetic peptide (Auspep)
T1 peptide: H-CLYGLPPFYSRNT-NH2
The experiment in a line: SPR; BIAcore 2000; peptide immobilised on Sensor Chip CM5 by amine chemistry; isolated WW-domains injected at 20 µl/min in HBS-EP; KD estimated from steady state equilibrium responses. As to conditions: both partners purified.

B1: Nedd4 WW3 (isolated WW-domain, GST removed) (domain or fragment, UniProt P46934 840-873, looked up)
chain: GFLPKGWEVRHAPNGRPFFIDHNTKTTTWEDPRL
notes: Nedd4 WW-domain 3 (a Nedd4 with four WW-domains); also called WW-domain 3 of Nedd4; source: E. coli BL21, GST removed with thrombin or TEV protease, purified (glutathione-Sepharose, Superdex-75)
In general, Kd refers to a measure of binding affinity in units of concentration. As for B1, the Kd was 130 µM.
In the case of DLGPLPPGWEERIHLDGRTFYIDHNSKITQWEDPRLQNPAIT (domain or fragment) [Nedd4-2 WW4 (isolated WW-domain, GST removed)], the Kd was over 600 µM.

B2: Nedd4-2 WW1 (isolated WW-domain, GST removed) (domain or fragment)
chain: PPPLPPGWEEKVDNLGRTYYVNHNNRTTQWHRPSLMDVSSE
On to B2, for which the Kd was over 600 µM.

B3: Nedd4-2 WW2-3 (isolated protein, GST removed) (domain or fragment)
chain: TTPGLPSGWEERKDAKGRTYYVNHNNRTTTWTRPIMQLAEDGASGSATNSNNHLIEPQIRRPRSLSSPTVTLSAPLEGAKDSPVRRAVKDTLSNPQSPQPSPYNSPKPQHKVTQSFLPPGWEMRIAPNGRPFFIDHNTKTTTWEDPRLKFPVHM
With B3, the Kd is 53.3 µM.

B4: RNase (enzyme)
chain: KETAAAKFERQHMDSSTSAASSSNYCNQMMKSRNLTKDRCKPVNTFVHESLADVQAVCSQKNVACKNGQTNCYQSYSTMSITDCRETGSSKYPNCAYKTTQANKHIIVACEGNPYVPVHFDASV
Take B4: the dissociation constant (Kd) is over 600 µM.

B5: Nedd4-2 WW2 (isolated WW-domain, GST removed) (domain or fragment)
chain: not shown
Turning to B5, the dissociation constant (Kd) is 105 µM.
